Test results published in US20250051437A1 (University of California, published 2025).

Legend:
[1] = target: T1, human cadherin-17 (CDH17), endogenously expressed on human cancer cell lines (LS513, SNU-C1, PaTu8988s, … (human, UniProt Q12864 23-832)); assay: flow cytometry (iQue) on PATU8988S cells, 0.2 µg Ab
T1 construct: also called LS513 (Colon, CDH17+); HPAF2

[2] = target: T2, human CDH17-mGFP fusion protein overexpressed on HEK293T cells (clone G11) (human, UniProt Q12864 23-832); assay: KinExA, cell-based, HEK293T overexpressing human CDH17-mGFP (FIG. 16)
T2 construct: also called HEK293T CDH17mGFP Clone G11; HEK293T Human CDH17mGFP G11; not shown: mGFP fluorescent protein fused to CDH17
Protocol: (§1) The cell-based antibody affinity (KD) of the anti-CDH17 antibodies was measured by KinExA 4000 (Sapidyne Instrument, Boise, Idaho). Briefly, HEK293T overexpressing CDH17-fluorescent protein fusion (i.e., human CDH17-mGFP, monkey CDH17-mGFP, mouse CDH17-mGFP or rat CDH17-mGFP) were detached with Versene and equilibrated with either 50 pM, 200 pM, 20 nM, or 50 nM antibody in 2% FBS/DMEM at 4° C. overnight. The cell concentration started at 5×10⁶ cells/mL or 1×10⁷ cells/mL and 2-fold serial dilutions were performed up to 10 points. The next day, the cells were centrifuged at 1500 rpm for 10 min and the supernatants were saved. […] In contrast, while the humanized anti-CDH17 antibody, 07-0653-h43, fails to bind mouse CDH17 protein, it binds rat CDH17 protein equally well as to human and monkey CDH17 protein such that its Kp is less than about 1 nM for human, monkey and rat CDH17 proteins with overlapping 95% confidence interval values.

[3] = target: T2, human CDH17-mGFP fusion protein …; assay: KinExA, cell-based, HEK293T CDH17mGFP clone G11
Protocol: as §1

[4] = target: T2, human CDH17-mGFP fusion protein …; assay: KinExA, cell-based, HEK293T human CDH17mGFP G11 (same value as r12)
Protocol: as §1

[5] = target: T1, human cadherin-17 (CDH17), endogenously …; assay: flow cytometry (iQue) on LS513 cells, 1 µg Ab
[6] = target: T2, human CDH17-mGFP fusion protein …; assay: flow cytometry (iQue) on HEK293T CDH17 mGFP clone G11 (human), 1 µg Ab
[7] = target: T1, human cadherin-17 (CDH17), endogenously …; assay: KinExA, cell-based, SNUC1 cells
[8] = target: T3, mouse CDH17-mGFP fusion protein overexpressed on HEK293T cells (mouse, UniProt Q9R100 26-827); assay: flow cytometry on HEK293T mouse CDH17mGFP mass population, 20 µg/ml
T3 construct: also called HEK293T Mouse CDH17mGFP mass; not shown: mGFP fluorescent protein
T3 sequence (Q9R100 26-827): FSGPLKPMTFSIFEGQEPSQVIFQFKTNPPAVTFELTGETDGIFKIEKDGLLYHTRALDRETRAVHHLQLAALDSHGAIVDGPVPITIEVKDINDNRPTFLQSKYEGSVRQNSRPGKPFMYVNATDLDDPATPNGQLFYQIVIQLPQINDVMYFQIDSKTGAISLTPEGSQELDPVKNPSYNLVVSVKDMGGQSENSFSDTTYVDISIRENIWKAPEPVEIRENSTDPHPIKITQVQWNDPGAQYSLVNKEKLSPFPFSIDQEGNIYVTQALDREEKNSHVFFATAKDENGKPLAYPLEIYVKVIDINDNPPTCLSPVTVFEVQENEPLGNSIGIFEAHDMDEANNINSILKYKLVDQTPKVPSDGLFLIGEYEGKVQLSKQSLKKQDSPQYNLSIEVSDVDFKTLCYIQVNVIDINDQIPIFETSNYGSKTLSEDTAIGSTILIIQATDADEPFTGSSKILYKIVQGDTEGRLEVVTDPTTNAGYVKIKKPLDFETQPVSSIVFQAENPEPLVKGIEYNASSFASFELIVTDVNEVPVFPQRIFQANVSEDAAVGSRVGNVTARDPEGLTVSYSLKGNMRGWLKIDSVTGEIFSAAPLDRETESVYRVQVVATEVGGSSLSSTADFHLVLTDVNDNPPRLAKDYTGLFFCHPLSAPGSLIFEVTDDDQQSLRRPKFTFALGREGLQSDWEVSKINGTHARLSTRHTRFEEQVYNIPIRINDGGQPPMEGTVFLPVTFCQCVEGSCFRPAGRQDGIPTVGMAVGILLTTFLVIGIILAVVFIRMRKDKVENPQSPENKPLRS

[9] = target: T4, rat CDH17 fused to moxGFP, overexpressed on HEK293T cells (rat, UniProt P55281 22-827); assay: flow cytometry (BD C6) on HEK293T Rat CDH17 moxGFP cells
T4 construct: whole, on cells; also called HEK293T Rat CDH17mGFP mass pop; rat CDH17-moxGFP
T4 sequence (P55281 22-827): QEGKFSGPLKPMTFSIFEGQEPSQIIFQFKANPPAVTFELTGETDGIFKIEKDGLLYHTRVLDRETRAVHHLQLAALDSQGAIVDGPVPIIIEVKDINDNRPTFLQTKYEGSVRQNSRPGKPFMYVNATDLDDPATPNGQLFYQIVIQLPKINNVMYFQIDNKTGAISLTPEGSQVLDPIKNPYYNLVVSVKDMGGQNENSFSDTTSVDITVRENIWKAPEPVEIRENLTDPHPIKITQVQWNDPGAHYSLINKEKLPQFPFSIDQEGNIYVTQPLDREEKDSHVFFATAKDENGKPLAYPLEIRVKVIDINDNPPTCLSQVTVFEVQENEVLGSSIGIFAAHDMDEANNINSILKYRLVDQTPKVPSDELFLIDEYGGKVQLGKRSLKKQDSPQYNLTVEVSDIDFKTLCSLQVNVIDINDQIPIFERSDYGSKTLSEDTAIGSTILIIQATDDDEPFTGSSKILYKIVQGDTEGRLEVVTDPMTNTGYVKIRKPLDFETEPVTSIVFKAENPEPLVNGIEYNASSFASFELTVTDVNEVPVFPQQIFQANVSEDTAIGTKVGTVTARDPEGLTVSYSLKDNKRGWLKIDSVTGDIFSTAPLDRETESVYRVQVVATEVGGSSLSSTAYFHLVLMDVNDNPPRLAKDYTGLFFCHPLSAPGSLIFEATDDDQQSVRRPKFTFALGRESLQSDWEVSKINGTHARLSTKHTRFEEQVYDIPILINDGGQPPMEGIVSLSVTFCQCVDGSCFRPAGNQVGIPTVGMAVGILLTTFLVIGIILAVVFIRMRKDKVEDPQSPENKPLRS
Protocol: (§2) To determine relative antigen binding strengths of the humanized antibodies, FACS assays were carried out as essentially described in Example 1. […] Using a BD Biosciences Accuri™ C6 Flow Cytometer (San Jose, CA), antibody binding based on Alexa Fluor® 647 fluorescence was measured in the FL4-H channel and fusion protein overexpression based on GFP fluorescence was measured in the FL1-H channel.

[10] = target: T1, human cadherin-17 (CDH17), endogenously …; assay: flow cytometry (iQue) on SNUC1 cells, 1 µg Ab
[11] = target: T3, mouse CDH17-mGFP fusion protein …; assay: flow cytometry (BD C6) on HEK293T Mouse CDH17 mGFP cells
Protocol: as §2

[12] = target: T1, human cadherin-17 (CDH17), endogenously …; assay: flow cytometry (iQue) on PATU8988S cells, 1 µg Ab
[13] = target: T1, human cadherin-17 (CDH17), endogenously …; assay: flow cytometry (iQue) on SNUC1 cells, 0.2 µg Ab
[14] = target: T2, human CDH17-mGFP fusion protein …; assay: flow cytometry on HEK293T human CDH17mGFP G11, 20 µg/ml
[15] = target: T1, human cadherin-17 (CDH17), endogenously …; assay: flow cytometry (iQue) on LS513 cells, 0.2 µg Ab
[16] = target: T5, recombinant CDH17 extracellular domain (ECD) with 6x His tag (human, UniProt Q12864 23-787); assay: ELISA on recombinant CDH17 ECD-6xHis
T5 construct: also called Recombinant CDH17 ECD-6xhis tag

[17] = target: T2, human CDH17-mGFP fusion protein …; assay: flow cytometry (iQue) on HEK293T CDH17 mGFP clone G11 (human), 0.2 µg Ab
[18] = target: T1, human cadherin-17 (CDH17), endogenously …; assay: flow cytometry on LS513 cells (CDH17+), 20 µg/ml
[19] = target: T4, rat CDH17 fused to moxGFP, …; assay: flow cytometry on HEK293T rat CDH17mGFP mass population, 20 µg/ml
[20] = target: T1, human cadherin-17 (CDH17), endogenously …; assay: flow cytometry of the ADC on LS513 cells (CDH17+), 20 µg/ml
[21] = target: T1, human cadherin-17 (CDH17), endogenously …; assay: indirect flow cytometry (iQue) on LS513 cells (CDH17+), anti-His secondary antibody
Protocol: Bispecific antibodies and scFv fragments were assessed for their binding effect to CDH17 positive cells by an indirect flow cytometry assay iQue® (Sartorius, Gottingen, Germany). The asssays were performed with CDH17 positive LS513 cells or CDH17 negative M202 cells using the primary antibody and fluorochrome-labeled anti-His secondary antibody using the iQue® where FL4-H values acquired by iQue® software were reported.

B1: humanized anti-CDH17 antibody 07-0646-h7 (antibody, human IgG1, V domains shown)
VH: QVQLVQSGAEVKKPGASVKMSCKASGYTFTSYNMHWVRQAPGQGLEWIGAIYPGNGDTSYAQKFQGRATLTVDTSTSTAYMELSSLRSEDTAVYYCARGRGRYFEYWGQGTTLTVSS
VL: DIQLTQSPSSLSASVGDRVTMTCRASSSVSSSYLHWYQQKPGKAPKLLIYSTSNLASGVPSRFSGSGSGTDYTLTISSVQPEDFATYYCQQYDSSPSTFGQGTKLEIK
notes: C-terminal lysine kept in the humanized antibodies; also called CDH17-646-h7; 07-646-h7
For B1, the “Antibody Binding Activity by Flow iQue” value [1] was 21400, the Kd [2] was less than 1000 pM and the Kd [3] was 817 pM. The Kd [4] was 817 pM, the “Antibody Binding Activity by Flow iQue” value [5] was 2.66e+06 and the “Antibody Binding Activity by Flow iQue” value [6] was 181000. The Kd [7] was 532 pM, the “Cross Reactivity by Flow” value [8] was 2510 and the binding result [9] was “no binding (tested: 1 µg)”. The “Antibody Binding Activity by Flow iQue” value [10] was 74900, the binding result [11] was “no binding (tested: 1 µg)” and the “Antibody Binding Activity by Flow iQue” value [12] was 95600. The “Antibody Binding Activity by Flow iQue” value [13] was 120000, the “Cross Reactivity by Flow” value [14] was 50500 and the “Antibody Binding Activity by Flow iQue” value [15] was 2.86e+06. The EC50 [16] was 730 pM, the “Antibody Binding Activity by Flow iQue” value [17] was 50500 and the “Antibody Binding Activity by Flow Cytometry” value [18] was 47200. For the same binder, the “Cross Reactivity by Flow” value [19] was 2200.

B2: 07-0646-h7-VC-PAB-MMAE (antibody, human IgG1, DAR about 4, V domains shown)
VH: QVQLVQSGAEVKKPGASVKMSCKASGYTFTSYNMHWVRQAPGQGLEWIGAIYPGNGDTSYAQKFQGRATLTVDTSTSTAYMELSSLRSEDTAVYYCARGRGRYFEYWGQGTTLTVSS
VL: DIQLTQSPSSLSASVGDRVTMTCRASSSVSSSYLHWYQQKPGKAPKLLIYSTSNLASGVPSRFSGSGSGTDYTLTISSVQPEDFATYYCQQYDSSPSTFGQGTKLEIK
modifications: MC-VC-PAB-MMAE on free thiols of cysteines from reduced interchain disulfides; positions not given; MC-VC-PAB-MMAE on free thiols of cysteines from reduced interchain disulfides; average 4 MMAE per antibody; positions not given
notes: also called CDH17-ADC-646-h7; 07-0646-h7-MMAE
For B2, the “ADC Binding Activity by Flow Cytometry” value [20] was 73500.

B3: 07-0653-h43-VC-PAB-MMAE (antibody, human IgG1, DAR about 4, V domains shown)
VH: QVQLVQSGAEVKKPGASVKVSCKASGYTFTDYYMNWVRQAPGQGLEWMGVIYPYSGGIGYAQKFQGRVTMTVDKSTSTAYMELSSLRSEDTAVYYCARGRGDYFGLFDFWGQGTTVTVSS
VL: DIQLTQSPSSLSASVGDRVTITCRATSSLSYIHWYQQKPGKAPKPLIYEISKLASGVPSRFSGSGSGTDYTLTISSLQPEDFATYYCQQWNYPFTFGQGTKLEIK
modifications: MC-VC-PAB-MMAE on free thiols of cysteines from reduced interchain disulfides; positions not given; MC-VC-PAB-MMAE on free thiols of cysteines from reduced interchain disulfides; average 4 MMAE per antibody; positions not given
notes: also called CDH17-ADC-653-h43; 07-0653-h43-MMAE
B3 was tested, and the “ADC Binding Activity by Flow Cytometry” value [20] was 35100.

B4: 07-0663-h7-VC-PAB-MMAE (antibody, human IgG1, kappa, DAR about 4, V domains shown)
VH: QVQLVQSGAEVKKPGSSVKISCKVSGYTFTDHTIHWMRQAPGQGLEWIGYIFPRDDIVVYAQKFQGRATLTADKSTSTAYMELSSLRSEDTAVYYCARPPYYYSRNFYFDYWGQGTTLTVSS
VL: DIQMTQSPSSLSASVGDRVTITCRVSSIISSSKLHWYQQKPGKAPKPLIYGTSTLASGVPSRFSGSGSGTDYTLTISSLQPEDFATYYCQQWSNYPFTFGQGTKLEIKR
modifications: MC-VC-PAB-MMAE on free thiols of cysteines from reduced interchain disulfides; positions not given; MC-VC-PAB-MMAE on free thiols of cysteines from reduced interchain disulfides; average 4 MMAE per antibody; positions not given
In the case of B4, the “ADC Binding Activity by Flow Cytometry” value [20] is reported as 67400.

B5: 07-0646-h7scFv anti-CDH17 scFv (scFv)
scFv: DIQLTQSPSSLSASVGDRVTMTCRASSSVSSSYLHWYQQKPGKAPKLLIYSTSNLASGVPSRFSGSGSGTDYTLTISSVQPEDFATYYCQQYDSSPSTFGQGTKLEIKGGGGSGGGGSGGGGSQVQLVQSGAEVKKPGASVKMSCKASGYTFTSYNMHWVRQAPGQGLEWIGAIYPGNGDTSYAQKFQGRATLTVDTSTSTAYMELSSLRSEDTAVYYCARGRGRYFEYWGQGTTLTVSSHHHHHH
notes: VL-linker-VH; also called CDH17-646-h7scfv; 07-0646-7scFv
An FL4-H [21] of 864000 was found for B5 in this work.

B6: 07-0653-h43scFv anti-CDH17 scFv (scFv)
scFv: DIQLTQSPSSLSASVGDRVTITCRATSSLSYIHWYQQKPGKAPKPLIYEISKLASGVPSRFSGSGSGTDYTLTISSLQPEDFATYYCQQWNYPFTFGQGTKLEIKGGGGSGGGGSGGGGSQVQLVQSGAEVKKPGASVKVSCKASGYTFTDYYMNWVRQAPGQGLEWMGVIYPYSGGIGYAQKFQGRVTMTVDKSTSTAYMELSSLRSEDTAVYYCARGRGDYFGLFDFWGQGTTVTVSSHHHHHH
notes: VL-linker-VH; also called CDH17-653-h43scfv
An FL4-H [21] of 2.21e+06 was found for B6 in this work.

B7: 07-0663-h7scFv anti-CDH17 scFv (scFv)
scFv: DIQMTQSPSSLSASVGDRVTITCRVSSIISSSKLHWYQQKPGKAPKPLIYGTSTLASGVPSRFSGSGSGTDYTLTISSLQPEDFATYYCQQWSNYPFTFGQGTKLEIKGGGGSGGGGSGGGGSQVQLVQSGAEVKKPGSSVKISCKVSGYTFTDHTIHWMRQAPGQGLEWIGYIFPRDDIVVYAQKFQGRATLTADKSTSTAYMELSSLRSEDTAVYYCARPPYYYSRNFYFDYWGQGTTLTVSSHHHHHH
notes: VL-linker-VH
An FL4-H [21] of 2.05e+06 was found for B7 in this work.
